Values of other authors in article PMC3076547.
pKd: −log10 of the molar value.

Biological target: Nef (Human immunodeficiency virus 1) (UniProt P04324)

In the case of Hck SH3 (from UniProt P08631), the pKd is given as 6.60.
